Results: FireProtDB (doi:10.1073/pnas.0804396105)
“And” between values parts separate entries of the source, which are not always exact repeats. Equal values may be shown once.

B1: Adenosine receptor A2a, P29274 (parent)
chain: MPIMGSSVYITVELAIAVLAILGNVLVCWAVWLNSNLQNVTNYFVVSLAAADIAVGVLAIPFAITISTGFCAACHGCLFIACFVLVLTQSSIFSLLAIAIDRYIAIRIPLRYNGLVTGTRAKGIIAICWVLSFAIGLTPMLGWNNCGQPKEGKNHSQGCGEGQVACLFEDVVPMNYMVYFNFFACVLVPLLLMLGVYLRIFLAARRQLKQMESQPLPGERARSTLQKEVHAAKSLAIIVGLFALCWLPLHIINCFTFFCPDCSHAPLWLMYLAIVLSHTNSVVNPFIYAYRIREFRQTFRKIIRSHVLRQQEPFKAAGTSARVLAAHGSDGEQVSLRLNGHPPGVWANGSAPHPERRPNGYALGLVSGGSAQESQGNTGLPDVELLSHELKGVCPEPPGLDDPLAQDGAGVS

Variants of: B1
Conditions: Homo sapiens; pH 7.4; Thermal; Activity; Tris 50 mM; NaCl 0.4 M; structure 4UHR; whole UniProt chain shown

| Variant | Tm | change of melting temperature, mutant - wild type (higher = more stable) |
| --- | --- | --- |
| MPIMGSSVYITVELAIAVLAILGNVLVCWAVWLNSNLQNVTNYFVVSLAAADIAVGVLAIPFAITISTGFCAACHGCLFIACFVLVLTQSSIFSLLAIAIDRYIAIRIPLRYNGLVTGTRAKGIIAICWVLSFAIGLTPMLGWNNCGQPKEGKNHSQGCGEGQVACLFEDVVPMNYMVYFNFFACVLVPLLLMLGVYLRIFLAARRQLKQMESQPLPGERARSTLQKEVHLAKSAAIIAGLFALCWLPLHIINCFTFFCPDCSHAPLWLMYLAIVLSHTNSVVNPFIYAYRIREFRQTFRKIIRSHVLRQQEPFKAAGTSARVLAAHGSDGEQVSLRLNGHPPGVWANGSAPHPERRPNGYALGLVSGGSAQESQGNTGLPDVELLSHELKGVCPEPPGLDDPLAQDGAGVS [A231L L235A V239A] | 38 °C | 7 °C |
| MPIMGSSVYITVELAIAVLAILGNVLVCWAVWLNSNLQNVTNYFVVSLAAADIAVGVLAIPFAITISTGFCAACHGCLFIACFVLVLTQSSIFSLLAIAIDRYIAIRIPLRYNGLVTGTRAKGIIAICWVLSFAIGLTPMLGWNNCGQPKEGKNHSQGCGEGQVACLFEDVVPMNYMVYFNFFLCVLVPLLLMLGVYLRIFLLARRQLKQMESQPLPGERARSTLQKEVHAAKSLAIIVGLFALCWLPLHIINCFTFFCPDCSHAPLWLMYLAIVLSHTNSVVNPFIYAYRIREFRQTFRKIIRSHVLRQQEPFKAAGTSARVLAAHGSDGEQVSLRLNGHPPGVWANGSAPHPERRPNGYALGLVSGGSAQESQGNTGLPDVELLSHELKGVCPEPPGLDDPLAQDGAGVS [A184L A203L] | 30 °C | 10 °C |
| MPIMGSSVYITVELAIAVLAILGNVLVCWAVWLNSNLQNVTNYFVVSLAAADILVGVLAIPFAITISTGFCAACHGCLFIACFVLVLAQSSIFSLLAIAIDRYIAIRIPLRYNGLVTGTRAKGIIAICWVLSFAIGLTPMLGWNNCGQPKEGKNHSQGCGEGQVACLFEDVVPMNYMVYFNFFACVLVPLLLMLGVYLRIFLALRRQLKQMESQPLPGERARSTLQKEVHAAKSLAIIAGLFALCWLPLHIINCFTFFCPDCSHAPLWLMYLAIVLSHTNSVVNPFIYAYRIREFRQTFRKIIRSHVLRQQEPFKAAGTSARVLAAHGSDGEQVSLRLNGHPPGVWANGSAPHPERRPNGYALGLVSGGSAQESQGNTGLPDVELLSHELKGVCPEPPGLDDPLAQDGAGVS [A54L T88A A204L V239A] | – | 10 °C and 15 °C |
| MPIMGSSVYITVELAIAVLAILGNVLVCWAVWLNSNLQNVTNYFVVSLAAADIAVGVLAIPFAITISTGFCAACHGCLFIACFVLVLTQSSIFSLLAIAIDRYIAIRIPLRYNGLVTGTRAKGIIAICWVLSFAIGLTPMLGWNNCGQPKEGKNHSQGCGEGQVACLFEDVVPMNYMVYFNFFACVLVPLLLMLGVYLRIFLAARRQLKAMESQPLPGARARSTLQKEVHAAKSLAIIVGLFALCWLPLHIINCFTFFCPDCSHAPLWLMYLAIVLSHTNSVVNPFIYAYRIREFRQTFRKIIRSHVLRQQEPFKAAGTSARVLAAHGSDGEQVSLRLNGHPPGVWANGSAPHPERRPNGYALGLVSGGSAQESQGNTGLPDVELLSHELKGVCPEPPGLDDPLAQDGAGVS [Q210A E219A] | 31 °C | 11 °C |
| MPIMGSSVYITVELAIAVLAILGNVLVCWAVWLNSNLQNVTNYFVVSLAAADIAVGVLAIPFAITISTGFCAACHGCLFIACFVLVLTQSSIFSLLAIAIDRYIAIRIPLRYNGLVTGTRAKGIIAICWVLSFAIGLTPMLGWNNCGQPKEGKNHSQGCGEGQVACLFEDVVPMNYMVYFNFFACVLVPLLLMLGVYLRIFLLLRRQLKQMESQPLPGERARSTLQKEVHAAKSLAIIVGLFALCWLPLHIINCFTFFCPDCSHAPLWLMYLAIVLSHTNSVVNPFIYAYRIREFRQTFRKIIRSHVLRQQEPFKAAGTSARVLAAHGSDGEQVSLRLNGHPPGVWANGSAPHPERRPNGYALGLVSGGSAQESQGNTGLPDVELLSHELKGVCPEPPGLDDPLAQDGAGVS [A203L A204L] | 40 °C and 42 °C | 9 °C and 10 °C |
| MPIMGSSVYITVELAIAVLAILGNVLVCWAVWLNSNLQNVTNYFVVSLAAADIAVGVLAIPFAITISTGFCAACHGCLFIACFVLVLTQSSIFSLLAIAIDRYIAIRIPLRYNGLVTGTRAKGIIAICWVLSFAIGLTPMLGWNNCGQPKEGKNHSQGCGEGQVACLFEDVVPMNYMVYFNFFACVLVPLLLMLGVYLRIFLAARRQLKQMESQPLPGERARAALAAEVHAAKSLAIIVGLFALCWLPLHIINCFTFFCPDCSHAPLWLMYLAIVLSHTNSVVNPFIYAYRIREFRQTFRKIIRSHVLRQQEPFKAAGTSARVLAAHGSDGEQVSLRLNGHPPGVWANGSAPHPERRPNGYALGLVSGGSAQESQGNTGLPDVELLSHELKGVCPEPPGLDDPLAQDGAGVS [S223A T224A Q226A K227A] | 24 °C | 4 °C |
| MPIMGSSVYITVELAIAVLAILGNVLVCWAVWLNSNLQNVTNYFVVSLAAADIAVGVLAIPFAITISTGFCAACHGCLFIACFVLVLTQSSIFSLLAIAIDRYIAIRIPLRYNGLVTGTRAKGIIAICWVLSFAIGLTPMLGWNNCGQPKEGKNHSQGCGEGQVACLFEDVVPMNYMVYFNFFACVLVPLLLMLGVYLRIFLAARRQLKQMESQPLPGERARSTLQKEVHAAKSLAIIVGLFALCWLPLHIINCFTFFCADCSHAPAWLMYLAIVLSHTNSVVNPFIYAYRIREFRQTFRKIIRSHVLRQQEPFKAAGTSARVLAAHGSDGEQVSLRLNGHPPGVWANGSAPHPERRPNGYALGLVSGGSAQESQGNTGLPDVELLSHELKGVCPEPPGLDDPLAQDGAGVS [P260A L267A] | 31 °C and 30 °C | – |
| MPIMGSSVYITVELAIAVLAILGNVLVCWAVWLNSNLQNVTNYFVVSLAAADIAVGVLAIPFAITISTGFCAACHGCLFIACFVLVLTQSSIFSLLAIAIDRYIAIRIPLRYNGLVTGTRAKGIIAICWVLSFAIGLTPMLGWNNCGQPKEGKNHSQGCGEGQVACLFEDVVPMNYMVYFNFFACVLVPLLLMLGVYLRIFLAARRQLKQMESQPLPGERARSTLQKEVHAAKSLAIIVGLFALCWLPLHIINCFTFFCPDCSHAPLWLMYLAIVLSHANSVVAPFIYAYRIREFRQTFRKIIRSHVLRQQEPFKAAGTSARVLAAHGSDGEQVSLRLNGHPPGVWANGSAPHPERRPNGYALGLVSGGSAQESQGNTGLPDVELLSHELKGVCPEPPGLDDPLAQDGAGVS [T279A N284A] | 29 °C | 9 °C |
